# Biological target: p53 DBD 94-288 (Homo sapiens, UniProt P04637)
# Experiment: atomic force spectroscopy
# p53 DBD 94-288, sequence (P04637 94-288): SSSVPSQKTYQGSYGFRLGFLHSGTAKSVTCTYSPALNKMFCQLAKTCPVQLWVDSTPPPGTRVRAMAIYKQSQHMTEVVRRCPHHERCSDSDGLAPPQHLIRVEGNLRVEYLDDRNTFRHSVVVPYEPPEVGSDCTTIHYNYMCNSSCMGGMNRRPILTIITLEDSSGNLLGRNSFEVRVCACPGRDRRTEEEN
binder,measurement,value
"TVNLSHPGNLPKNVMGHNWVLSTAADMQ [p28 (azurin fragment, Cys-p28) 50-77]",Kd,630 nM
